B1: H183/L072 VH S99L (antibody, name in Kabat numbering, V domains shown)
VH: QVQLVESGGGLVQPGRSLRLSCAASGFTFSNAWMHWVRQAPGKGLEWVAQIKDKGNAYAAYYAPSVKGRFTISRDDSKNSIYLQMNSLKTEDTAVYYCHYVHYALASTVLPAFGVDAWGQGTTVTVSS
VL: DIVMTQSPLSLPVTPGEPASISCQASQELVHMNRNTYLHWYQQKPGQAPRLLIYKVSNRFPGVPDRFSGSGSGTDFTLKISRVEAEDVGVYYCAQGTSVPFTFGQGTKLEIK
B2: H183/L072 VH T100bA (antibody, name in Kabat numbering, V domains shown)
VH: QVQLVESGGGLVQPGRSLRLSCAASGFTFSNAWMHWVRQAPGKGLEWVAQIKDKGNAYAAYYAPSVKGRFTISRDDSKNSIYLQMNSLKTEDTAVYYCHYVHYASASAVLPAFGVDAWGQGTTVTVSS
VL: DIVMTQSPLSLPVTPGEPASISCQASQELVHMNRNTYLHWYQQKPGQAPRLLIYKVSNRFPGVPDRFSGSGSGTDFTLKISRVEAEDVGVYYCAQGTSVPFTFGQGTKLEIK
B3: H183/L072 VH T28K (antibody, name in Kabat numbering, V domains shown)
VH: QVQLVESGGGLVQPGRSLRLSCAASGFKFSNAWMHWVRQAPGKGLEWVAQIKDKGNAYAAYYAPSVKGRFTISRDDSKNSIYLQMNSLKTEDTAVYYCHYVHYASASTVLPAFGVDAWGQGTTVTVSS
VL: DIVMTQSPLSLPVTPGEPASISCQASQELVHMNRNTYLHWYQQKPGQAPRLLIYKVSNRFPGVPDRFSGSGSGTDFTLKISRVEAEDVGVYYCAQGTSVPFTFGQGTKLEIK
B4: H183/L072 VH T28H (antibody, name in Kabat numbering, V domains shown)
VH: QVQLVESGGGLVQPGRSLRLSCAASGFHFSNAWMHWVRQAPGKGLEWVAQIKDKGNAYAAYYAPSVKGRFTISRDDSKNSIYLQMNSLKTEDTAVYYCHYVHYASASTVLPAFGVDAWGQGTTVTVSS
VL: DIVMTQSPLSLPVTPGEPASISCQASQELVHMNRNTYLHWYQQKPGQAPRLLIYKVSNRFPGVPDRFSGSGSGTDFTLKISRVEAEDVGVYYCAQGTSVPFTFGQGTKLEIK
B5: H183/L072 VH S100aM (antibody, name in Kabat numbering, V domains shown)
VH: QVQLVESGGGLVQPGRSLRLSCAASGFTFSNAWMHWVRQAPGKGLEWVAQIKDKGNAYAAYYAPSVKGRFTISRDDSKNSIYLQMNSLKTEDTAVYYCHYVHYASAMTVLPAFGVDAWGQGTTVTVSS
VL: DIVMTQSPLSLPVTPGEPASISCQASQELVHMNRNTYLHWYQQKPGQAPRLLIYKVSNRFPGVPDRFSGSGSGTDFTLKISRVEAEDVGVYYCAQGTSVPFTFGQGTKLEIK
B6: H183/L072 VH S99M (antibody, name in Kabat numbering, V domains shown)
VH: QVQLVESGGGLVQPGRSLRLSCAASGFTFSNAWMHWVRQAPGKGLEWVAQIKDKGNAYAAYYAPSVKGRFTISRDDSKNSIYLQMNSLKTEDTAVYYCHYVHYAMASTVLPAFGVDAWGQGTTVTVSS
VL: DIVMTQSPLSLPVTPGEPASISCQASQELVHMNRNTYLHWYQQKPGQAPRLLIYKVSNRFPGVPDRFSGSGSGTDFTLKISRVEAEDVGVYYCAQGTSVPFTFGQGTKLEIK
B7: H183/L072 VH T28Y (antibody, name in Kabat numbering, V domains shown)
VH: QVQLVESGGGLVQPGRSLRLSCAASGFYFSNAWMHWVRQAPGKGLEWVAQIKDKGNAYAAYYAPSVKGRFTISRDDSKNSIYLQMNSLKTEDTAVYYCHYVHYASASTVLPAFGVDAWGQGTTVTVSS
VL: DIVMTQSPLSLPVTPGEPASISCQASQELVHMNRNTYLHWYQQKPGQAPRLLIYKVSNRFPGVPDRFSGSGSGTDFTLKISRVEAEDVGVYYCAQGTSVPFTFGQGTKLEIK
B8: H183/L072 VH T28A (antibody, name in Kabat numbering, V domains shown)
VH: QVQLVESGGGLVQPGRSLRLSCAASGFAFSNAWMHWVRQAPGKGLEWVAQIKDKGNAYAAYYAPSVKGRFTISRDDSKNSIYLQMNSLKTEDTAVYYCHYVHYASASTVLPAFGVDAWGQGTTVTVSS
VL: DIVMTQSPLSLPVTPGEPASISCQASQELVHMNRNTYLHWYQQKPGQAPRLLIYKVSNRFPGVPDRFSGSGSGTDFTLKISRVEAEDVGVYYCAQGTSVPFTFGQGTKLEIK
B9: H183/L072 VH S100aL (antibody, name in Kabat numbering, V domains shown)
VH: QVQLVESGGGLVQPGRSLRLSCAASGFTFSNAWMHWVRQAPGKGLEWVAQIKDKGNAYAAYYAPSVKGRFTISRDDSKNSIYLQMNSLKTEDTAVYYCHYVHYASALTVLPAFGVDAWGQGTTVTVSS
VL: DIVMTQSPLSLPVTPGEPASISCQASQELVHMNRNTYLHWYQQKPGQAPRLLIYKVSNRFPGVPDRFSGSGSGTDFTLKISRVEAEDVGVYYCAQGTSVPFTFGQGTKLEIK
B10: H183/L072 VH T28M (antibody, name in Kabat numbering, V domains shown)
VH: QVQLVESGGGLVQPGRSLRLSCAASGFMFSNAWMHWVRQAPGKGLEWVAQIKDKGNAYAAYYAPSVKGRFTISRDDSKNSIYLQMNSLKTEDTAVYYCHYVHYASASTVLPAFGVDAWGQGTTVTVSS
VL: DIVMTQSPLSLPVTPGEPASISCQASQELVHMNRNTYLHWYQQKPGQAPRLLIYKVSNRFPGVPDRFSGSGSGTDFTLKISRVEAEDVGVYYCAQGTSVPFTFGQGTKLEIK
B11: H183/L072 VH T28G (antibody, name in Kabat numbering, V domains shown)
VH: QVQLVESGGGLVQPGRSLRLSCAASGFGFSNAWMHWVRQAPGKGLEWVAQIKDKGNAYAAYYAPSVKGRFTISRDDSKNSIYLQMNSLKTEDTAVYYCHYVHYASASTVLPAFGVDAWGQGTTVTVSS
VL: DIVMTQSPLSLPVTPGEPASISCQASQELVHMNRNTYLHWYQQKPGQAPRLLIYKVSNRFPGVPDRFSGSGSGTDFTLKISRVEAEDVGVYYCAQGTSVPFTFGQGTKLEIK
B12: H183/L072 VH T28I (antibody, name in Kabat numbering, V domains shown)
VH: QVQLVESGGGLVQPGRSLRLSCAASGFIFSNAWMHWVRQAPGKGLEWVAQIKDKGNAYAAYYAPSVKGRFTISRDDSKNSIYLQMNSLKTEDTAVYYCHYVHYASASTVLPAFGVDAWGQGTTVTVSS
VL: DIVMTQSPLSLPVTPGEPASISCQASQELVHMNRNTYLHWYQQKPGQAPRLLIYKVSNRFPGVPDRFSGSGSGTDFTLKISRVEAEDVGVYYCAQGTSVPFTFGQGTKLEIK
B13: H183/L072 VH T28E (antibody, name in Kabat numbering, V domains shown)
VH: QVQLVESGGGLVQPGRSLRLSCAASGFEFSNAWMHWVRQAPGKGLEWVAQIKDKGNAYAAYYAPSVKGRFTISRDDSKNSIYLQMNSLKTEDTAVYYCHYVHYASASTVLPAFGVDAWGQGTTVTVSS
VL: DIVMTQSPLSLPVTPGEPASISCQASQELVHMNRNTYLHWYQQKPGQAPRLLIYKVSNRFPGVPDRFSGSGSGTDFTLKISRVEAEDVGVYYCAQGTSVPFTFGQGTKLEIK
B14: H183/L072 VH T28P (antibody, name in Kabat numbering, V domains shown)
VH: QVQLVESGGGLVQPGRSLRLSCAASGFPFSNAWMHWVRQAPGKGLEWVAQIKDKGNAYAAYYAPSVKGRFTISRDDSKNSIYLQMNSLKTEDTAVYYCHYVHYASASTVLPAFGVDAWGQGTTVTVSS
VL: DIVMTQSPLSLPVTPGEPASISCQASQELVHMNRNTYLHWYQQKPGQAPRLLIYKVSNRFPGVPDRFSGSGSGTDFTLKISRVEAEDVGVYYCAQGTSVPFTFGQGTKLEIK
B15: H183/L072 VH T28R (antibody, name in Kabat numbering, V domains shown)
VH: QVQLVESGGGLVQPGRSLRLSCAASGFRFSNAWMHWVRQAPGKGLEWVAQIKDKGNAYAAYYAPSVKGRFTISRDDSKNSIYLQMNSLKTEDTAVYYCHYVHYASASTVLPAFGVDAWGQGTTVTVSS
VL: DIVMTQSPLSLPVTPGEPASISCQASQELVHMNRNTYLHWYQQKPGQAPRLLIYKVSNRFPGVPDRFSGSGSGTDFTLKISRVEAEDVGVYYCAQGTSVPFTFGQGTKLEIK
B16: H183/L072 VH T28Q (antibody, name in Kabat numbering, V domains shown)
VH: QVQLVESGGGLVQPGRSLRLSCAASGFQFSNAWMHWVRQAPGKGLEWVAQIKDKGNAYAAYYAPSVKGRFTISRDDSKNSIYLQMNSLKTEDTAVYYCHYVHYASASTVLPAFGVDAWGQGTTVTVSS
VL: DIVMTQSPLSLPVTPGEPASISCQASQELVHMNRNTYLHWYQQKPGQAPRLLIYKVSNRFPGVPDRFSGSGSGTDFTLKISRVEAEDVGVYYCAQGTSVPFTFGQGTKLEIK
B17: H183/L072 VH T100bI (antibody, name in Kabat numbering, V domains shown)
VH: QVQLVESGGGLVQPGRSLRLSCAASGFTFSNAWMHWVRQAPGKGLEWVAQIKDKGNAYAAYYAPSVKGRFTISRDDSKNSIYLQMNSLKTEDTAVYYCHYVHYASASIVLPAFGVDAWGQGTTVTVSS
VL: DIVMTQSPLSLPVTPGEPASISCQASQELVHMNRNTYLHWYQQKPGQAPRLLIYKVSNRFPGVPDRFSGSGSGTDFTLKISRVEAEDVGVYYCAQGTSVPFTFGQGTKLEIK
B18: H183/L072 VH T28W (antibody, name in Kabat numbering, V domains shown)
VH: QVQLVESGGGLVQPGRSLRLSCAASGFWFSNAWMHWVRQAPGKGLEWVAQIKDKGNAYAAYYAPSVKGRFTISRDDSKNSIYLQMNSLKTEDTAVYYCHYVHYASASTVLPAFGVDAWGQGTTVTVSS
VL: DIVMTQSPLSLPVTPGEPASISCQASQELVHMNRNTYLHWYQQKPGQAPRLLIYKVSNRFPGVPDRFSGSGSGTDFTLKISRVEAEDVGVYYCAQGTSVPFTFGQGTKLEIK
B19: H183/L072 VH S100aA (antibody, name in Kabat numbering, V domains shown)
VH: QVQLVESGGGLVQPGRSLRLSCAASGFTFSNAWMHWVRQAPGKGLEWVAQIKDKGNAYAAYYAPSVKGRFTISRDDSKNSIYLQMNSLKTEDTAVYYCHYVHYASAATVLPAFGVDAWGQGTTVTVSS
VL: DIVMTQSPLSLPVTPGEPASISCQASQELVHMNRNTYLHWYQQKPGQAPRLLIYKVSNRFPGVPDRFSGSGSGTDFTLKISRVEAEDVGVYYCAQGTSVPFTFGQGTKLEIK
B20: H183/L072 VH T28V (antibody, name in Kabat numbering, V domains shown)
VH: QVQLVESGGGLVQPGRSLRLSCAASGFVFSNAWMHWVRQAPGKGLEWVAQIKDKGNAYAAYYAPSVKGRFTISRDDSKNSIYLQMNSLKTEDTAVYYCHYVHYASASTVLPAFGVDAWGQGTTVTVSS
VL: DIVMTQSPLSLPVTPGEPASISCQASQELVHMNRNTYLHWYQQKPGQAPRLLIYKVSNRFPGVPDRFSGSGSGTDFTLKISRVEAEDVGVYYCAQGTSVPFTFGQGTKLEIK
B21: H183/L072 VH S100aI (antibody, name in Kabat numbering, V domains shown)
VH: QVQLVESGGGLVQPGRSLRLSCAASGFTFSNAWMHWVRQAPGKGLEWVAQIKDKGNAYAAYYAPSVKGRFTISRDDSKNSIYLQMNSLKTEDTAVYYCHYVHYASAITVLPAFGVDAWGQGTTVTVSS
VL: DIVMTQSPLSLPVTPGEPASISCQASQELVHMNRNTYLHWYQQKPGQAPRLLIYKVSNRFPGVPDRFSGSGSGTDFTLKISRVEAEDVGVYYCAQGTSVPFTFGQGTKLEIK

These binders were tested against T1, Human CD137 ECD (human) (assay: single mutant vs template dBBDu183H).
T1 construct: also called 4-1BB
T1 sequence (chain, as listed by the source limits assumed): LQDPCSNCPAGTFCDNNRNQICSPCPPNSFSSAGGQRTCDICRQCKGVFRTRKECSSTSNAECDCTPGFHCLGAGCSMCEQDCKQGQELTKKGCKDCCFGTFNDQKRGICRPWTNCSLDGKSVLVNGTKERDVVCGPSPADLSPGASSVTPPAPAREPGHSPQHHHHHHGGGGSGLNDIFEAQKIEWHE
In the case of B1, the “fold change of affinity” value is reported as 0.3 fold. In the case of B2, the “fold change of affinity” value is reported as 0 fold. In the case of B3, the “fold change of affinity” value is reported as 1.1 fold. With B4 the “fold change of affinity” value was 1.1 fold. B5 was tested, and the “fold change of affinity” value was 0 fold. In the case of B6, the “fold change of affinity” value is reported as 0.8 fold. For B7, the “fold change of affinity” value was 1.1 fold. With B8 the “fold change of affinity” value was 0.4 fold. In the case of B9, the “fold change of affinity” value is reported as 0 fold. For B10, the “fold change of affinity” value was 0.7 fold. B11 was tested, and the “fold change of affinity” value was 0.3 fold. B12 was tested, and the “fold change of affinity” value was 0.8 fold. With B13 the “fold change of affinity” value was 0.3 fold. In the case of B14, the “fold change of affinity” value is reported as 0.5 fold. With B15 the “fold change of affinity” value was 1.5 fold. B16 was tested, and the “fold change of affinity” value was 0.5 fold. B17 was tested, and the “fold change of affinity” value was 0 fold. B18 was tested, and the “fold change of affinity” value was 0.8 fold. In the case of B19, the “fold change of affinity” value is reported as 0 fold. In the case of B20, the “fold change of affinity” value is reported as 1.2 fold. With B21 the “fold change of affinity” value was 0 fold.
